For test [1], the target named is T1, Aβ oligomers prepared from Amyloid β-protein, Human 1-42 peptide (human, UniProt P05067 672-713).
T1 construct: domain: Amyloid β-protein 1-42; Oligomeric preparation (HFIP, DMSO, acetic acid solution pH 4.5, overnight at 4 °C); Amine-coupled to a CM5 chip; also called amyloid β oligomer
The test is described as follows: SPR (Biacore T100), Aβ oligomers amine-coupled to CM5 chip, antibody injected, Bivalent Analyte model (kd1). How it is done:
(§1) All the following operations were performed using Biocore T100 (manufactured by GE Healthcare Bio-sciences). The Aβ oligomers obtained in (1) of Example 2 were immobilized to the CM5 sensor chip (GE Healthcare Bio-sciences) using the amine coupling method.
(§2) Onto the chip to which the Aβ oligomers were immobilized for measurement samples prepared to have 8 levels of density by diluting from 30 μg/mL by doubling dilution in a stepwise manner (HV0LV0, HV5aLV0, HV5aLV1b, HV5aLV3, HV6LV0, HV6LV1b, and HV6LV3) was sequentially injected and measured in the order from the lower density based on the automatic program of the multi-kinetics.
(§3) Using the analysis software attached to the device, Biacore T100 Evaluation software (manufactured by Biacore Life Science), analysis was carried out with the Bivalent Analyte model to calculate the binding rate constant ka and the dissociation rate constant kd of each of the antibody against Aβ oligomers.

Test [2] concerns the target T2, Aβ monomers prepared from Biotin-beta-Amyloid, Human 1-40 (human, UniProt P05067 672-711, biotin (Biotin-beta-Amyloid; position of the biotin not stated)).
T2 construct: domain: beta-Amyloid 1-40; captured through biotin on an SA sensor chip; also called amyloid β protein monomer
The test can be described thus: SPR (Biacore T100), biotin-Aβ1-40 monomers captured on SA chip, antibody injected. The protocol: In order to analyze the binding activity of the respective anti-Aβ oligomer humanized antibodies (HV0LV0, HV5aLV0, HV5aLV1b, HV5aLV3, HV6LV0, HV6LV1b, and HV6LV3) against Aβ monomers, the binding activity was measured in the same manner as in (1) of this Example. In addition, the binding activity of anti-Aβ antibody 6E10 (manufactured by CONVANCE) was measured as a control antibody.
The Aβ monomers obtained in (2) of Example (2) were immobilized to the SA sensor chip (manufactured by GE Healthcare Bio-sciences) by the biotin capturing method. Onto the chip to which the Aβ monomers were immobilized, samples for measurement, which were prepared to have 5 levels of density by diluting from 30 μg/mL by doubling dilution in a stepwise manner (HV0LV0, HV5aLV0, HV5aLV1b, HV5aLV3, HV6LV0, HV6LV1b, and HV6LV3) were sequentially injected and measured in the order from the lower density based on the automatic program of the multi-kinetics mode.
On the technique in general: Surface plasmon resonance follows binding to a sensor surface in real time, without labels.

For test [3], the target named is T1, Aβ oligomers prepared from Amyloid …. The test is described as follows: SPR (Biacore T100), Aβ oligomers amine-coupled to CM5 chip, antibody injected, Bivalent Analyte model (kd1/ka1). The protocol: as §1, §2, §3
The target is the same in test [4]. The test can be described thus: SPR (Biacore T100), Aβ oligomers amine-coupled to CM5 chip, antibody injected, Bivalent Analyte model (ka1). The protocol:
as §1, §2, §3

The record followed here is patent US20120009180A1 (Kyowa Kirin, published 2012).

T1 sequence (P05067 672-713 limits assumed): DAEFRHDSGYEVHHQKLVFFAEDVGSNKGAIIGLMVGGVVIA
T2 sequence (P05067 672-711 limits assumed): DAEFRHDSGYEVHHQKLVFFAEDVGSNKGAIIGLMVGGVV

B1: anti-Aβ oligomer humanized antibody HV0LV0 (antibody, V domains shown)
VH: DVQLVESGGGVVQPGRSLRLSCAASGFTFSSFGMHWVRQAPGKGLQWMVYISSGSSTIYYADTVKGRFTISRDNSRSTLFLQMNSLRGEDTAVYYCARTGTRAYWGQGTLVTVSS
VL: DIVMTQSPLSLPVTPGEPASISCRSSQSIVHSNGNTYLEWYLQKPGQSPQLLIYKVSNRFSGVPDRFSGSGSGTDFTLKISRVEAEDVGVYYCFQGSHVPPTFGQGTKLEIK
notes: purified on Prosep vA; also called HV0LVV0; 4H5HV0 + 4H5LV0
For B1, the koff in test [1] came to 0.0014 s⁻¹. The binding result in test [2] is listed as “no binding”. This molecule also returned a Kd in test [3] of 0.1 µM. The molecule further yielded an on-rate constant (kon) in test [4] of 14000 M⁻¹ s⁻¹.

B2: anti-Aβ oligomer humanized antibody HV5aLV1b (antibody, V domains shown)
VH: DVQLVESGGGVVQPGRSLRLSCAASGFTFSSFGMHWVRQAPGKGLEWVAYISSGSSTIYYADTVKGRFTISRDNSRSTLFLQMNSLRGEDTAMYYCAGTGTRAYWGQGTLVTVSS
VL: DIVMTQSPLSLPVTLGEPASISCRSSQSIVHSNGNTYLEWYLQKPGQSPQLLIYKVSNRFSGVPDRFSGSGSGTDFTLKISRVEAEDVGVYYCFQGSHVPPTFGQGTKLEIK
As for B2, the koff in test [1] came out at 0.00088 s⁻¹. For the same molecule, in test [2], the binding result is recorded as “no binding”. Besides, in test [3], the Kd is 0.09 µM. The molecule also registered a kon in test [4] of 9800 M⁻¹ s⁻¹.

B3: anti-Aβ oligomer humanized antibody HV5aLV0 (antibody, V domains shown)
VH: DVQLVESGGGVVQPGRSLRLSCAASGFTFSSFGMHWVRQAPGKGLEWVAYISSGSSTIYYADTVKGRFTISRDNSRSTLFLQMNSLRGEDTAMYYCAGTGTRAYWGQGTLVTVSS
VL: DIVMTQSPLSLPVTPGEPASISCRSSQSIVHSNGNTYLEWYLQKPGQSPQLLIYKVSNRFSGVPDRFSGSGSGTDFTLKISRVEAEDVGVYYCFQGSHVPPTFGQGTKLEIK
notes: also called HV5aVL0
With B3, the koff in test [1] came to 0.00063 s⁻¹. The binding result in test [2] is reported as “no binding”. The molecule further returned a Kd in test [3] of 0.055 µM. For the same molecule, the kon in test [4] came to 11000 M⁻¹ s⁻¹.

B4: anti-Aβ oligomer humanized antibody HV6LV3 (antibody, V domains shown)
VH: DVQLVESGGGVVQPGRSLRLSCAASGFTFSSFGMHWVRQAPGKGLEWVAYISSGSSTIYYADTVKGRFTISRDNSRNTLFLQMNSLRGEDTAMYYCAGTGTRAYWGQGTLVTVSS
VL: DVVMTQSPLSLPVTLGEPASISCRSSQSIVHSNGNTYLEWYLQKPGQSPKLLIYKVSNRFSGVPDRFSGSGSGTDFTLKISRVEAEDVGVYYCFQGSHVPPTFGQGTKLEIK
For B4, the koff in test [1] was 0.00092 s⁻¹. In test [2], the binding result is “no binding”. In test [3], this molecule registered a Kd of 0.11 µM. In test [4], this molecule displayed an on-rate constant (kon) of 8200 M⁻¹ s⁻¹.

What is called koff is the first-order rate constant of dissociation. A low value points to slow dissociation. The kon is the rate constant with which the complex forms. Lower therefore signals slow association.
